# From patent publication US20130296258A1 (Pieris, published 2013)
# Tests used:
# [1] = molecular target: T1, Recombinant human Glypican-3 (human, UniProt P51654 25-559, limits assumed, randomly biotinylated via Lysine residues (EZ-Link Sulfo-NHS-LC-LC-Biotin) where captured on Neutravidin; not biotinylated where used as competitor in solution); test: direct ELISA; biotinylated human Glypican-3 (1 ug/ml) captured via Neutravidin, dilution series of purified mutein
# T1 construct: Bought protein; The biotinylated and the non-biotinylated preparation are written as one molecule; also called GPC3; GPC-3
# T1 sequence (P51654 25-559 limits assumed): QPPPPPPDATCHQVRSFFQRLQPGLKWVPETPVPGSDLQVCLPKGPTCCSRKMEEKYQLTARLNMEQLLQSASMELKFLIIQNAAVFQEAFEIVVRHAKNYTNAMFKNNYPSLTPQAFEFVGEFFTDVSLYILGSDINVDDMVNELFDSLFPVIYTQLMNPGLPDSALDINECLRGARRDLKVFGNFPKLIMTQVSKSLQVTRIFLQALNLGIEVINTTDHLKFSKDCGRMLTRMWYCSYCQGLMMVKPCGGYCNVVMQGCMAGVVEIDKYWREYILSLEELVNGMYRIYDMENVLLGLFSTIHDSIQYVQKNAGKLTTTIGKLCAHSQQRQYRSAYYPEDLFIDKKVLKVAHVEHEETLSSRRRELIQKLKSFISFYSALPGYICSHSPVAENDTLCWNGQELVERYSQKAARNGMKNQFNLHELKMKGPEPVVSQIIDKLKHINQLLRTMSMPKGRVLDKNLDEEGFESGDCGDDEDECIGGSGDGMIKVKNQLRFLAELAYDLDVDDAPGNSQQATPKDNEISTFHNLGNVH
# Description: (§1) A “direct” ELISA was performed to verify the binding affinity and specificity of the selected Lcn2 muteins. Therefore, a constant concentration of 1 μg/ml biotinylated human Glypican 3 (R&D Systems) was captured on the surface of a polystyrol plate (Greiner, GE) via BSA blocked Neutravidin (Thermo Scientific, 5 μg/ml). Two step dilution series of purified Lcn2 muteins were incubated with the captured GPC-3 for 1 h at room temperature and detected either via the Strep-tag II using a rabbit anti-strep-tag II polyconal antibody (GenScript, USA) or by using a scaffold-specific polyclonal rabbit antibody. In both cases an anti rabbit IgG-HRP conjugate (Abcam, UK) was employed as secondary detection antibody.
# (§2) The absorption ΔA at […] was measured in an ELISA reader (Tecan, GE) and the data were fitted with Graphpad Prism software (Statcom, USA).
# [2] = molecular target: T1, Recombinant human Glypican-3; test: SPR (Biacore T100), Glypican-3 amine-coupled to a CM5 chip, mutein as analyte, evaluated conc 40/120 nM, 1:1 model
# Description: (§3) Real time analysis of the binding of the Lcn2 muteins to Glypican-3 was performed on a Biacore T100 system (GE Healthcare Bio-Sciences AB, Uppsala, Sweden) using HBS-EP+ (BR-1006-69, GE Healthcare Bio-Sciences AB, Uppsala, Sweden) as running buffer. A 10 μg/mL solution of Glypican-3 in 10 mM sodium acetate pH 4.5 was immobilized onto a CM5 chip (GE Healthcare Bio-Sciences AB, Uppsala, Sweden) using standard amine coupling chemistry, resulting in a ligand density of 467 RU. The purified Lcn2 muteins were applied in concentrations of 40 nM and 120 nM at a flow rate of 30 μL/min. The dilutions were injected with association times of 120 sec and dissociation times of 420 sec to obtain ka and kd information. Regeneration of the ligand was achieved by injecting either 6 M Guanidinium-HCl (120 sec/300 sec) or 3 M MgCl2 (900 sec) with a flow rate of 10 μL/min. Injection of regeneration solutions was followed by an extra wash step with running buffer and a stabilization period of 180 sec.
# (§4) The data were double-referenced by subtraction of the corresponding signals measured for the control channel, which had been activated and blocked with ethanolamine and by substraction of buffer injections from the binding responses. ka and kd for the binding reaction were determined using Biacore T100 Evaluation Software V2.0.1 for data processing and kinetic fitting. The data were globally fit with 1:1 binding model.
# [3] = molecular target: T1, Recombinant human Glypican-3; test: flow cytometry on SK-HEP1 cells stably transfected with human GPC3, detection via rabbit anti-hNGAL antiserum and anti-rabbit IgG-PE
# Description: (§5) Empty vector control cells were also obtained and analyzed in parallel. Detection of GPC3 was achieved using mouse anti-glypican 3 clone 1G12 monoclonal antibody (DCS).
# (§6) In order to assess binding of muteins to the GPC3 on the cell surface, 200,000 cells in PBS/2% FCS were used in each binding reaction. Reactions were performed on ice in 30 μl for 2 h. Following two washing steps in PBS/2% FCS a secondary rabbit anti-hNGAL scaffold antiserum was employed for 30 min. followed another two wash steps. […] Measurements were performed on a FACSCalibur flow cytometer where 10,000 events were acquired for each sample. Geometric mean values were compiled in FlowJo (Treestar software) and fitted to a sigmoidal dose response model in the Prism 5 program (GraphPad) to obtain EC50 values.
# mouse GPC3-SK-HEP1 = molecular target: T2, mouse GPC3-SK-HEP1 (mouse, UniProt Q8CFZ4); test: flow cytometry on SK-HEP1 cells stably transfected with mouse GPC3, detection via rabbit anti-hNGAL antiserum and anti-rabbit IgG-PE
# T2 construct: cell-surface protein on transfected cells; also called mouse GPC3 transfected SK-Hep1 cells
# T2 sequence (Q8CFZ4 25-553 limits assumed): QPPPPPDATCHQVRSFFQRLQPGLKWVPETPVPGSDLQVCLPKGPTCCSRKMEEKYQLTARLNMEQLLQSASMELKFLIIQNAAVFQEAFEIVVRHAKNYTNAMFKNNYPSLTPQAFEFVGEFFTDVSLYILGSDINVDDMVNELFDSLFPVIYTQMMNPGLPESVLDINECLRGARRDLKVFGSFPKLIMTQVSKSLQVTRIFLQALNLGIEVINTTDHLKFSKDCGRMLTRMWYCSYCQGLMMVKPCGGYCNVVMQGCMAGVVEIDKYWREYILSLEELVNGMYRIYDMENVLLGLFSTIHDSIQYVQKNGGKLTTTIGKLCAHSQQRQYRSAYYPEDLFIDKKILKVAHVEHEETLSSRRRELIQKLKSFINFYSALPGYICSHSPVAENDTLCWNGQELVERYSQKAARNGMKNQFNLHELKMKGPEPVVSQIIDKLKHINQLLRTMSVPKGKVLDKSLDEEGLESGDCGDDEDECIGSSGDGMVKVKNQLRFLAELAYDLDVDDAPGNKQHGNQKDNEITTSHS
# Description: as §5, §6
# cyno GPC3-SK-HEP1 = molecular target: T3, cyno GPC3-SK-HEP1 (Macaca fascicularis, UniProt A0A2K5VK50); test: flow cytometry on SK-HEP1 cells stably transfected with cynomolgus GPC3, detection via rabbit anti-hNGAL antiserum and anti-rabbit IgG-PE
# T3 construct: cell-surface protein on transfected cells; also called cynomolgus GPC3; cyno GPC3 transfected SK-Hep1 cells
# Description: as §5, §6
# [4] = molecular target: T1, Recombinant human Glypican-3; test: competition ELISA: constant mutein pre-incubated with a dilution series of non-biotinylated human Glypican-3, free mutein detected on plate-captured biotinylated human Glypican-3
# Description: The binding affinity of the Lcn2 muteins to non-modified Glypican-3 in solution was evaluated in a competition ELISA approach. Therefore, a constant concentration of 1 μg/ml biotinylated human Glypican-3 (R&D Systems) was captured on the surface of a polystyrol plate (Greiner, GE) via Neutravidin (Thermo Scientific, 5 μg/ml, GE). In parallel a two step dilution series of non-biotinylated human Glypican-3 starting from 1.5 μM was incubated with a constant concentration of GPC3-specific mutein for 1 h at room temperature in a non-protein binding 96 well polypropylene plate (Nunc, GE). The constant concentration of lipocalin muteins corresponds to the EC₅₀ of the respective muteins as determined in a direct ELISA as described above in this example. In the following the mixture of non-modified human GPC3 and lipocalin mutein was transferred onto the GPC3-captured Neutravidin plate. The biotinylated GPC3 was allowed to compete with the non-modified GPC3 for Anticalin binding for 1 h at room temperature. During these 1 h, free lipcocalin mutein was bound to the captured GPC3 and detected via a rabbit anti-strep-tag II polyconal antibody (GenScript, USA). A goat anti-rabbit IgG-HRP conjugate (Abcam, UK) was employed as secondary detection antibody. Parallel to the competition assay, anticalin binding was determined on the same plate in a “direct” ELISA, in order to obtain a standard curve linking the RFU values to anticalin concentration. This curve was then used to standardize competition data to the level of anticalins bounds to the plate and fitted with Graphpad software. IC₅₀ values correspond to the half-maximum amount of lipocalin mutein bound to the plate.
# [5] = molecular target: T1, Recombinant human Glypican-3; test: SPR (Biacore T100), Glypican-3 amine-coupled to a CM5 chip, mutein as analyte, evaluated conc 120 nM, 1:1 model
# Description: as §3, §4
# [6] = molecular target: T1, Recombinant human Glypican-3; test: direct ELISA: biotinylated human Glypican-3 captured via Neutravidin, protein titrated, RFU readout
# Description: as §1, §2
Binder,Kd [1] [nM],Kd [2] [nM],koff [2] [s⁻¹],kon [2] [M⁻¹ s⁻¹],EC50 [3] [nM],EC50 (mouse GPC3-SK-HEP1) [nM],EC50 (cyno GPC3-SK-HEP1) [nM],IC50 [4] [nM],Kd [5] [nM],koff [5] [s⁻¹],kon [5] [M⁻¹ s⁻¹],binding result [6]
"PIE-G3C (designed binder, C-terminal Strep-tag II; also called Lcn2 mutein; not shown: C-terminal Strep-tag II) QDSTSDLIPAPPLSKVPLQQNFQDNQFHGKWYVVGRAGNVALREDKDPPKMRATIYELKEDKSYNVTNVRFAMKKCMYSIGTFVPGSQPGEFTLGQIKSEPGNTSNLVRVVSTNYNQHAMVFFKEVYQNREIFFITLYGRTKELTSELKENFIRFSKSLGLPENHIVFPVPIDQCIDGSAWSHPQFEK",0.32,1.21,0.00238,1.97e+06,0.5,3.5,0.2,1,–,–,–,–
"PIE-G3H (designed binder, C-terminal Strep-tag II; also called Lcn2 mutein; not shown: C-terminal Strep-tag II) QDSTSDLIPAPPLSKVPLQQNFQDNQFHGKWYVVGIAGNYILREDKDPPKMRATIYELKEDKSYNVTRVFFSRKKCDYIIWTFVPGSQPGEFTLGFIKSNPGLTSLLVRVVSTNYNQHAMVFFKWVDQNREVFGITLYGRTKELTSELKENFIRFSKSLGLPENHIVFPVPIDQCIDGSAWSHPQFEK",0.3,–,–,–,49,580,98,0.23,1.07,0.000209,195000,–
"PIE-G3F (designed binder, C-terminal Strep-tag II; also called Lcn2 mutein; not shown: C-terminal Strep-tag II) QDSTSDLIPAPPLSKVPLQQNFQDNQFHGKWYVVGIAGNGQLREDKDPWKMSATIYELKEDKSYNVTSVRFRLKKCSYWIYTFVPGSQPGEFTLGGIKSNPGDTSNLVRVVSTNYNQHAMVFFKYVIQNREWFIITLYGRTKELTSELKENFIRFSKSLGLPENHIVFPVPIDQCIDGSAWSHPQFEK",0.35,3.13,0.00128,409000,4.7,18.7,3.2,0.07,–,–,–,–
"PIE-G3G (designed binder, C-terminal Strep-tag II; also called Lcn2 mutein; not shown: C-terminal Strep-tag II) QDSTSDLIPAPPLSKVPLQQNFQDNQFHGKWYVVGMAGNASLREDKDPRKMNATIYELKEDKSYNVTKVRFWHKKCYYSITTFVPGSQPGEFTLGDIKSYPGWTSYLVRVVSTNYNQHAMVFFKGVRQNREWFSITLYGRTKELTSELKENFIRFSKSLGLPENHIVFPVPIDQCIDGSAWSHPQFEK",0.27,0.51,0.000723,1.42e+06,0.7,4.3,0.2,0.1,–,–,–,–
"PIE-G3B (designed binder, C-terminal Strep-tag II; also called Lcn2 mutein; not shown: C-terminal Strep-tag II) QDSTSDLIPAPPLSKVPLQQNFQDNQFHGKWYVVGVAGNAMLREDKDPLKMRATIYELKEDKSYNVTGVSFWRKKCHYKIGTFVPGSQPGEFTLGDIKSGPGQTSNLVRVVSTNYNQHAMVFFKEVRQNREWFAITLYGRTKELTSELKENFIRFSKSLGLPENHIVFPVPIDQCIDGSAWSHPQFEK",0.27,0.55,0.000242,438000,2.5,2.9,1.1,0.2,–,–,–,–
"PIE-G3A (designed binder, Made in E. coli from phNGAL98 with a C-terminal Strep-tag II; also called Lcn2 mutein; not shown: C-terminal Strep-tag II) QDSTSDLIPAPPLSKVPLQQNFQDNQFHGKWYVVGIAGNWILREDKDPPKMRATIYELKEDKSYNVTRVRFDEKKCGYGIATFVPGSQPGEFTLGVIKSRPGITSDLVRVVSTNYNQHAMVFFKFVKQNREYFGITLYGRTKELTSELKENFIRFSKSLGLPENHIVFPVPIDQCIDGSAWSHPQFEK",7.6,3.78,0.000603,160000,> 100,–,> 100,0.6,–,–,–,–
"PIE-G3D (designed binder, C-terminal Strep-tag II; also called Lcn2 mutein; not shown: C-terminal Strep-tag II) QDSTSDLIPAPPLSKVPLQQNFQDNQFHGKWYVVGMAGNARLREDKDPVKMTATIYELKEDKSYNVTAVQFRLKKCQYGITTFVPGSQPGEFTLGDIKSIPGLTSMLVRVVSTNYNQHAMVFFKRVRQNREFFDITLYGRTKELTSELKENFIRFSKSLGLPENHIVFPVPIDQCIDGSAWSHPQFEK",0.46,1.4,0.00109,781000,1,10.5,0.7,0.7,–,–,–,–
"Lcn2 wildtype protein (other, also called recombinant Lcn2; negative control; not shown: C-terminal Strep-tag II of the phNGAL98 expression vector) QDSTSDLIPAPPLSKVPLQQNFQDNQFHGKWYVVGLAGNAILREDKDPQKMYATIYELKEDKSYNVTSVLFRKKKCDYWIRTFVPGSQPGEFTLGNIKSYPGLTSYLVRVVSTNYNQHAMVFFKKVSQNREYFKITLYGRTKELTSELKENFIRFSKSLGLPENHIVFPVPIDQCIDG",–,–,–,–,–,–,–,–,–,–,–,no binding
"PIE-G3E (designed binder, C-terminal Strep-tag II; also called Lcn2 mutein; not shown: C-terminal Strep-tag II) QDSTSDLIPAPPLSKVPLQQNFQDNQFHGKWYVVGSAGNHRLREDKDPRKMHATIYELKEDKSYNVTNVTFREKKCHYSIGTFVPGSQPGEFTLGKIKSNPGMTSFLVRVVSTNYNQHAMVFFKKVHQNREQFNITLYGRTKELTSELKENFIRFSKSLGLPENHIVFPVPIDQCIDGSAWSHPQFEK",0.2,0.35,0.00178,5.11e+06,0.4,2.7,0.12,0.1,–,–,–,–
